Paper doi:10.1101/2025.04.25.650734 (bioRxiv, 2025)
Each block holds one molecule with its values, some of them ahead of it.

Legend:
Test in all cases: single-particle TIRF colocalisation with photobleaching step counting
[1] = target: mTFP-K-Q, dimer of a wild type Kir2.1 subunit linked to a Kir2.1-K49Q subunit
[2] = target: mTFP-Q-K-K-Q tetramer of concatenated Kir2.1 subunits
[3] = target: mTFP-K-K, dimer of linked wild type Kir2.1 subunits
[4] = target: mTFP-K-K-K-K, linked tetramer of wild type Kir2.1 subunits
[5] = target: mTFP-Q-K-Q-Q tetramer of concatenated Kir2.1 subunits
[6] = target: tetrameric Kir2.1 construct with three SUMO1 binding sites
[7] = target: mTFP-K-Q-K-Q tetramer of concatenated Kir2.1 subunits
[8] = target: the molecule itself

stoichiometry N (SUMO1 monomers per channel) [1]: 2
stoichiometry N (SUMO1 monomers per channel) [2]: 1
stoichiometry N (SUMO1 monomers per channel) [3]: 2
stoichiometry N (SUMO1 monomers per channel) [4]: 2
stoichiometry N (SUMO1 monomers per channel) [5]: 1
stoichiometry N (SUMO1 monomers per channel) [6]: 2
stoichiometry N (SUMO1 monomers per channel) [7]: 2
Molecule: mCherry-SUMO1 (from UniProt P63165-1 1-97) (natural protein)

stoichiometry N [3]: 2
Molecule: mTFP-K-K, dimer of linked wild type Kir2.1 subunits

stoichiometry N [1]: 2
Molecule: mTFP-K-Q, dimer of a wild type Kir2.1 subunit linked to a Kir2.1-K49Q subunit

B1: mTFP1-tagged Kir2.1 (natural protein)
chain: MGSVRTNRYSIVSSEEDGMKLATMAVANGFGNGKSKVHTRQQCRSRFVKKDGHCNVQFINVGEKGQRYLADIFTTCVDIRWRWMLVIFCLAFVLSWLFFGCVFWLIALLHGDLDASKESKACVSEVNSFTAAFLFSIETQTTIGYGFRCVTDECPIAVFMVVFQSIVGCIIDAFIIGAVMAKMAKPKKRNETLVFSHNAVIAMRDGKLCLMWRVGNLRKSHLVEAHVRAQLLKSRITSEGEYIPLDQIDINVGFDSGIDRIFLVSPITIVHEIDEDSPLYDLSKQDIDNADFEIVVILEGMVEATAMTTQCRSSYLANEILWGHRYEPVLFEEKHCYKVDYSRFHKTYEVPNTPLCSARDLAEKKYILSNANSFCYENEVALTSKEEEDSENGVPESTSTDSPPGIDLHNQASVPLEPRPLRRESEI
stoichiometry N [8]: 4
